Test results published in patent publication US12661385B2, “Modulation of mTORCI activity and autophagy via CIB2-RHEB interaction” (University of Maryland, Baltimore, priority 2018, dated 2026).

What was measured:
RPE-J cells = assay: In vitro pulse-chase phagocytosis assay with opsin immunoblotting; format: cell-based, rat; settings: CIB2 overexpression vs control, chase 6 h
Description: FIG. 12. CIB2 mutant mice have less autophagy/lysosomal proteins, and overexpression of CIB2. in vitro, is sufficient to boost levels of autophagy/lysosomal proteins and clearance of opsin. a. […] Pro-cathepsin D levels were quantified from non-saturated exposures. c. Representative immunoblots for indicated autophagy/lysosomal proteins from RPE-J cells transiently transfected with GFP or CIB2-IRES-GFP. Endogenous CIB2 is observable in long exposure immunoblot, while transiently overexpressed CIB2 is readily observable in short exposure immunoblot. d. Quantification for immunoblots shown in (c). n=5 (LAMP-1) or 4 (ATG5-ATG12) independent transfection experiments. e, Schematic of the pulse-chase phagocytosis assay (left panel)—also see Examples below. […]
Complementary to the findings of Cib2 mutant mice, over-expressing CIB2 in RPE-J cells increased LAMP-1 and ATG5-ATG12 complex proteins levels (FIG. 12c-d). […] To test this idea, we assessed LC3-II flux. LC3-I is a cytosolic protein which when lipidated with a phosphatidylethanolamine adduct (LC3-II form) localizes to the growing auto/phagosome membrane, and thus can be used as a reliable readout for the dynamic autophagic process (Valapala et al., Autophagy 10, 480-496 (2014); Kim et al., Noncanonical Autophagy Promotes the Visual Cycle. Cell 154, 365-376 (2013); Klionsky et al., Autophagy 12, 1-222 (2016)). […]

Raptor = Raptor (Homo sapiens, UniProt Q8N122); assay: NanoSPD (nanoTRAP) interaction assay in COS-7 cells, Raptor; format: binding; design: HA (N); mCherry (N); settings: filopodia tip co-accumulation
Description: FIG. 14. […] Arrowheads indicate filopodia tip accumulation of hCIB2-eGFP, * indicates no accumulation of indicted constructs in the red channel. c. Representative confocal images (top panel) showing CIB2 (green) interaction with Rheb (red) and Raptor (red) using NanoTRAP assay. […] Arrowheads indicate filopodia tip accumulation of indicated constructs, * indicates no accumulation of indicted construct in the red or far-red channel. Scale bar: 10 μm. d. Quantification for nanoTRAP assay for images shown above. *** p<0.001 by one-way ANOVA. e, Co-IP experiments show interaction between Raptor and CIB2.
To reveal the molecular mechanism of CIB2-mediated mTORC1 modulation, we focused on the TSC-Rheb-mTORC1 axis. We performed an interaction screen of specific proteins including TSC1, TSC2, mTORC1-specific subunit Raptor, mTOR kinase, and Rheb. We used a recently-published quantitative interaction assay known as nanoscale pulldown 2.0 (NanoSPD), in which eGFP-nanobody tag fused to the myosin-HMM domain (nanoTRAP) preferentially migrates to the filopodia (Bird et al., Molecular Biology of the Cell 28, 463-475 (2017)). CIB2-eGFP (bait) migrated efficiently to filopodia in COS-7 cells only in the presence of the nanoTRAP. […] Many downstream and upstream targets of mTORC1 regulate its activity via binding to the mTORC1-specific subunit Raptor. […]

Raptor, sequence (Q8N122 whole entry): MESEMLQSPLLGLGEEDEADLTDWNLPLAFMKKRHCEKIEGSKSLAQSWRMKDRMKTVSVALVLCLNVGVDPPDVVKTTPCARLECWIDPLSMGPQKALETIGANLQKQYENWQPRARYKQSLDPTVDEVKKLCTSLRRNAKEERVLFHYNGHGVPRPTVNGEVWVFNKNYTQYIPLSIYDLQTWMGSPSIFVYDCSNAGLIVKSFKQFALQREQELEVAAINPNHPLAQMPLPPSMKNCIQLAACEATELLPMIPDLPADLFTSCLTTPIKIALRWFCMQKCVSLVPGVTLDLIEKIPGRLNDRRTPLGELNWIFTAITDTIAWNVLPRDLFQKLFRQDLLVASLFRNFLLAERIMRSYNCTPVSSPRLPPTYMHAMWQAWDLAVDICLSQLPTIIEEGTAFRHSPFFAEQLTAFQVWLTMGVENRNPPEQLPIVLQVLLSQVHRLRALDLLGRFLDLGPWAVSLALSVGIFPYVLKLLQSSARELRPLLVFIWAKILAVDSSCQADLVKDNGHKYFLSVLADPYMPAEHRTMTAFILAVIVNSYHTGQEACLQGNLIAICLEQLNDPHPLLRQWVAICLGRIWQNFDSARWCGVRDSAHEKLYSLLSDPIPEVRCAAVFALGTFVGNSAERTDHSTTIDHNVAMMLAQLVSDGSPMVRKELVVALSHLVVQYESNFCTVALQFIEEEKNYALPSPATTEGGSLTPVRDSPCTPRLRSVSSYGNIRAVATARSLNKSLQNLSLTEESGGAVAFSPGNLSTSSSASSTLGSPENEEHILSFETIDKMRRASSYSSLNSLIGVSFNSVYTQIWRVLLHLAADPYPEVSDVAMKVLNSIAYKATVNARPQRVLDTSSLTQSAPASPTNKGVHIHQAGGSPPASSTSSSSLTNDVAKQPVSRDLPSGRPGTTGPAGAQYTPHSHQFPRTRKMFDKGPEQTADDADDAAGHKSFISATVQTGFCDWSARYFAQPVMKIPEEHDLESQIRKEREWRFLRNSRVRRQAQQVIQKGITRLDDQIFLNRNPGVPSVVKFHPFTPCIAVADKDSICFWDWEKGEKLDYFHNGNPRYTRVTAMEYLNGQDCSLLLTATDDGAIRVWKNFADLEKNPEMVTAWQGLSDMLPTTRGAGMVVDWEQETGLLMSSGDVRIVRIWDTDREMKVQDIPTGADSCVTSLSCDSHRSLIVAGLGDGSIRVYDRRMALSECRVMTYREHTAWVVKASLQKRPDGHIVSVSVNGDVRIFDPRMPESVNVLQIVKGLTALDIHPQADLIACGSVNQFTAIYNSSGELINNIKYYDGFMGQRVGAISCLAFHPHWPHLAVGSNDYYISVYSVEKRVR

Interaction with Raptor (NanoSPD) (Raptor): interacts with CIB2
B1: CIB2: calcium and integrin binding protein 2, over-expressed in cells from plasmid constructs; SEQ ID NO:1 (human), SEQ ID NO:2 (mouse) (protein)
chain: MGNKQTIFTEEQLDNYQDCTFFNKKDILKLHARFYELAPNLVPMDYRKSPIVHVPMSLIIQMPELRENPFKERIVEAFSEDGEGNLTFNDFVDMFSVLCESAPRELKANYAFKIYDFNTDNFICKEDLEMTLARLTKSELEEDEVVLVCDKVIEEADLDGDGKLGFADFEDMIAKAPDFLSTFHIRI
modifications: left off: large carriers
Opsin 6 hr later (digestion phase) (RPE-J cells): less opsin
